This is an account of results in paper PMC11220700, “Activation and Purification of ß‐Glucocerebrosidase by Exploiting its Transporter LIMP‐2 – Implications for Novel Treatment Strategies in Gaucher's and Parkinson's Disease” (Advanced Science, 2024).

Test [1] has as its target T1, His‐tagged GCase wt (10xHis, C‐terminal, TEV‐cleavable) (human, UniProt P04062-1 40-536, red fluorescent dye NT-637 on amines (RED-NHS labelling kit), for MST).
T1 construct: human beta-glucocerebrosidase (GCase) wild type, secreted from cells transfected with pCMV-3-GBA-His; also called GCase-His; source: HEK 293F, transfected, purified from conditioned medium (Ni-NTA); not shown: 10xHis (TEV-cleavable), C-terminal, kept
T1 sequence (looked up): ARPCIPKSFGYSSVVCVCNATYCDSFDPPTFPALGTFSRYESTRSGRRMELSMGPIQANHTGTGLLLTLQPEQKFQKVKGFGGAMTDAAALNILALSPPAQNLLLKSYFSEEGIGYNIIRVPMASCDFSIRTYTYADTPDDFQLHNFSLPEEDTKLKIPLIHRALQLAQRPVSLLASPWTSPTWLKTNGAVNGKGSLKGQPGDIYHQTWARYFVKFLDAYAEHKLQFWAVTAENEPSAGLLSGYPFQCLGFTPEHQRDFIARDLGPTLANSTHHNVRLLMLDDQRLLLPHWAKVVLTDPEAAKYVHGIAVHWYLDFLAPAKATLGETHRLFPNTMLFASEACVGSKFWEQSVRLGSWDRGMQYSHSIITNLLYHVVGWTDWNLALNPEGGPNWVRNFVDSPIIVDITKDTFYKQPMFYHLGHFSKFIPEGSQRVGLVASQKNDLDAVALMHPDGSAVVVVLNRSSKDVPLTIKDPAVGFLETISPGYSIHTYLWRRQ
Description: MST; GCase-His labelled with NT-637, fixed at 25 nM; L2H5-wt titrated in a twofold series of 16 from 125 µM; 50 mM sodium citrate + 0.05% Tween-20, pH 7.4 (cytosolic pH); ambient temperature; the two highest concentrations left out of the Kd fit. As to conditions: both partners purified.

Test [2] has as its target T1, His‐tagged GCase wt (10xHis, …). Description: MST; GCase-His labelled, L2H5-wt titrated; lysosomal pH (pH 5.0); saturation not reached. To be noted: both partners purified.
The target in test [3] is T2, untagged GCase E326K (human, UniProt P04062-1 40-536, E326K).
T2 construct: human beta-glucocerebrosidase (GCase), disease-associated variant E326K, untagged; printed also as p.Glu365Lys (NM_000157.4); numbers count on: the mature protein; also called E326K GCase; p.E326K; source: HEK 293F, transfected (with sLIMP-2 or alone), in conditioned medium; co-purified with sLIMP-2 (Ni-NTA, SEC)
T2 sequence (looked up): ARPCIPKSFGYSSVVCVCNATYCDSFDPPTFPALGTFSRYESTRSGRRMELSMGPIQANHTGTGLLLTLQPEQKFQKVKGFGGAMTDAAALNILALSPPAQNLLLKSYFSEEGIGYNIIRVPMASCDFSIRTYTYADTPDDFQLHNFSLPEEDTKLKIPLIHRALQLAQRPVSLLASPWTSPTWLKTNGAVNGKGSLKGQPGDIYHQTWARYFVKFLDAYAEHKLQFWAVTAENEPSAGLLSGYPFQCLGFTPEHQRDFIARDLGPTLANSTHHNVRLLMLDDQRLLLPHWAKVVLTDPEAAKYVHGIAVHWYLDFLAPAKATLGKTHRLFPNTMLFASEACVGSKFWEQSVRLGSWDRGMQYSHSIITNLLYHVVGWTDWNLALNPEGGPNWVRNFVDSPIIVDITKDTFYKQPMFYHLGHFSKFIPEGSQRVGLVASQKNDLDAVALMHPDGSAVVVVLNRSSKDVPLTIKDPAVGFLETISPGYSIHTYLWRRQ
The test is described as follows: pull-down; Ni-NTA beads in conditioned medium of HEK 293F cells expressing His-tagged sLIMP-2 with untagged GCase (96 h); overnight at 4 °C; wash with 20 mM imidazole, elution with 400 mM imidazole, pH 8.0; western blot. To be noted: partners not purified. In general terms: A western blot detects proteins with antibodies after separation by electrophoresis.

The target in test [4] is T3, untagged human GCase wt (human, UniProt P04062-1 40-536).
T3 construct: human beta-glucocerebrosidase (GCase) wild type, untagged, secreted into the medium; also called wt GCase; beta-glucocerebrosidase; source: HEK 293F, transfected (with sLIMP-2 or alone), in conditioned medium; co-purified with sLIMP-2 (Ni-NTA, SEC)
T3 sequence (looked up): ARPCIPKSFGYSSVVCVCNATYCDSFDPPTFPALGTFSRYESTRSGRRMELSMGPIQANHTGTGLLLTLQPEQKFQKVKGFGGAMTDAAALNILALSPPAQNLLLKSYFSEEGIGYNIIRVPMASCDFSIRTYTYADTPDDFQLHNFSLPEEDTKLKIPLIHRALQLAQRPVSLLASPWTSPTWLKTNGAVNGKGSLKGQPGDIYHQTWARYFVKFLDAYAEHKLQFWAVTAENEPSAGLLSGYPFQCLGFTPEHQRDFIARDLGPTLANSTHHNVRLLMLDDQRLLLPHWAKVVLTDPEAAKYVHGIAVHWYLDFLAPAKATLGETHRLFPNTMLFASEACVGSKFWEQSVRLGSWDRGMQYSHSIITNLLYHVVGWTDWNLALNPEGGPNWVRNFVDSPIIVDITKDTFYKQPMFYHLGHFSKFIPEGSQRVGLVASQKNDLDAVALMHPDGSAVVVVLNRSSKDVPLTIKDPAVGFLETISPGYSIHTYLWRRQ
The description is as above. To be noted: partners not purified.

Test [5] addresses T4, untagged GCase N370S (human, UniProt P04062-1 40-536, N370S).
T4 construct: human beta-glucocerebrosidase (GCase), disease-associated variant N370S, untagged; numbers count on: the mature protein; also called N370S GCase; p.N370S; source: HEK 293F, transfected with sLIMP-2, in conditioned medium; co-purified with sLIMP-2 (Ni-NTA, SEC)
T4 sequence (looked up): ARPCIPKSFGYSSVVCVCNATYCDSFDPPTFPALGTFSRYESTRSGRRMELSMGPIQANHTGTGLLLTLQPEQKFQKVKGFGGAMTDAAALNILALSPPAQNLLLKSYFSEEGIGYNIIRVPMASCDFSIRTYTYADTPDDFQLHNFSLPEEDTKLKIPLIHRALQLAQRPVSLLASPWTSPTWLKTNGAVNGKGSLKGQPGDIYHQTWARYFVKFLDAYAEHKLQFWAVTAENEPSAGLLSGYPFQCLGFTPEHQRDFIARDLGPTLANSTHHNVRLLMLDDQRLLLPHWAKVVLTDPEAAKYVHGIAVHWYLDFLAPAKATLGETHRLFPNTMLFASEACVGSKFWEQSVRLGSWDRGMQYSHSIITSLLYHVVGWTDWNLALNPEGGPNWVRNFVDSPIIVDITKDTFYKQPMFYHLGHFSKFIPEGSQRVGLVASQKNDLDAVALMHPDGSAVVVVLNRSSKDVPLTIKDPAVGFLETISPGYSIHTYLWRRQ
The test is described as above. To be noted: partners not purified.

*: point of attachment. Biotin = O=C1N[C@H]2[C@H](CS[C@H]2CCCCC(=O)*)N1

B1: L2H5‐wt peptide (LIMP‐2‐derived helix 5 peptide) (peptide)
peptide: Biotin-KFERQGSGSQVHFLREIIEAMLKAYQSGSGYGRKKRRQRRR-NH2
notes: also called LIMP-2-derived peptide; LIMP-2-mimicking peptide; source: synthetic peptide (BioCat, >95% purity)
A word on the Kd: it is the equilibrium constant for the complex coming apart. With B1, the Kd in test [1] is 0.153 ± 0.037 µM; in test [2], approximately 98 µM.

B2: soluble LIMP‐2 (sLIMP‐2), secreted LIMP‐2 ectodomain (domain or fragment, human, UniProt Q14108 36-431, looked up)
chain: SIEKKIVLRNGTEAFDSWEKPPLPVYTQFYFFNVTNPEEILRGETPRVEEVGPYTYRELRNKANIQFGDNGTTISAVSNKAYVFERDQSVGDPKIDLIRTLNIPVLTVIEWSQVHFLREIIEAMLKAYQQKLFVTHTVDELLWGYKDEILSLIHVFRPDISPYFGLFYEKNGTNDGDYVFLTGEDSYLNFTKIVEWNGKTSLDWWITDKCNMINGTDGDSFHPLITKDEVLYVFPSDFCRSVYITFSDYESVQGLPAFRYKVPAEILANTSDNAGFCIPEGNCLGSGVLNVSICKNGAPIIMSFPHFYQADERFVSAIEGMHPNQEDHETFVDINPLTGIILKAAKRFQINIYVKKLDDFVETGDIRTMVFPVMYLNESVHIDKETASRLKSMINT
notes: lysosomal integral membrane protein 2 (LIMP-2), human, luminal domain, amino acids 36-431; also called LIMP-2 shuttle; sLIMP-2-shuttle; source: HEK 293F, transfected, secreted into conditioned medium; purified (Ni-NTA, SEC); not shown: 10xHis (TEV-cleavable), C-terminal, kept
Turning to B2, the binding result in test [3], in test [4] and in test [5] was “binds” each time.
